This note sets out measurements from the DeepSol protein solubility set.

The series in a line: soluble on expression in E. coli; label from the status in PepcDB or PDB records.
“IVSREAKLQFAYLENFKTKMRSTVSVREGQGVVLLCGPPPHSGELSYAWIFNEYPSFVEEDSRRFVSQETGHLYISKVEPSDVGNYTCVVTSMVTNARVLGSPTPLVLRSDGVMGEYEPKIEVQFPETLPAAKGSTVKLECFALGNPIPQINWRRSDGLPFSSKIKLRKFSGVLEIPNFQQEDAGSYECIAENSRGKNVARGRLTYYAKPHWVQLIKDVEIAVEDSLYWECRASGKPKPSYRWLKNGAALVLEERTQIENGALTISNLSVTDSGMFQCIAENKHGLVYSSAELKVVASAPDFSKNPMKKLVQVQVGSLVSLDCKPRASPRALSSWKKGDVSVQEHERISLLNDGGLKIANVTKADAGTYTCMAENQFGKANGTTHLVVTEPTRITLAPSNMDVSVGESVILPCQVQHDPLLDIIFTWYFNGALADFKKDGSHFEKVGGSSSGDLMIRNIQLKHSGKYVCMVQTGVDSVSSAADLIVRGSPGPPENVKVDEITDTTAQLSWKEGKDNHSPVISYSIQARTPFSVGWQTVTTVPEVIDGKTHTATVVELNPWVEYEFRVVASNKIGGGEPSLPSEKVRTEEAVPEVPPSEVNGGGGSRSELVITWDPVPEELQNGEGFGYVVAFRPLGVTTWIQTVVTSPDTPRYVFRNESIVPYSPYEVKVGVYNNKGEGPFSPVTTVFSAEEEPTVAPSQVSANSLSSSEIEVSWNTIPWKLSNGHLLGYEVRYWNGGGKEESSSKMKVAGNETSARLRGLKSNLAYYTAVRAYNSAGAGPFSATVNVTTKKTPPSQPPGNVVWNATDTKVLLNWEQVKAMENESEVTGYKVFYRTSSQNNVQVLNTNKTSAELVLPIKEDYIIEVKATTDGGDGTSSEQIRIPRITSMDARGSTSAISNVHPMSSYMPIVLFLIVYVLW”: the “soluble on expression in E. coli” value is “soluble”.

In the case of “KAELKMLEAIEEDLNTRFADVDRKQLRLGAAGTFQKQEDADQWYKMVKDTFENEIDDIYYDSLSFSIGCHVGPNAIGIGISVVTRDEK”, the “soluble on expression in E. coli” value is “not soluble”.

For the sequence “KAGQVDTNDLWSSIPVSPDEYITQRLPILVARMREQWSNNDHVKRYIDLCRRNIVGPRGIVMQAQSRKSRSGALDTAINDAIETWWQDWGRKGQCEVTGKLSWREIQTLCVETCARDGEFIARKIYGTHAGPHGFCLQLIDPLRLPVRYQMLKTDQTGGFVRQGIEFNRFGKPLAYHFSSIDERDTYYYSINGRGYIRVPAEEVIHIFKPVMVGQRRGLPWAATSLLRLHHLQGFEEAAVQNARAAASKMGFVCYPEGVGPRADEQENVAQTIQMNAGPLAIHELPQGAEFQDWNPQYPSGEFGLFTKAAKQSLAAGMDLSYHALSGDLADVNYSSIRQGTLDERERWKEDQQ”, the “soluble on expression in E. coli” value was “not soluble”.

Consider “KAPFLILMHRNPDPDAMASAMALKTIFDKWGVSSEIAYGGKIGYDENKAMVNLLSIKLNPIDEINLSRYCSIAVVDSSSSKTLPIDVEDSKLSVIIDHHNDSDIVAKYMDILPEIGATATILTKYLLELEIAPNRDLATALYYAITSDTNYFKRKTSKKDFEAASYLQGLMDPKVLEMIENPDM”, for which the “soluble on expression in E. coli” value is listed as “not soluble”.

As to “KEIIVNENDILLLWDGSNAGEIFLGKKGILSSTMVKLEQKNKIMDDLYLFYSLKLKESFLKSQTKGTGIPHVDKKIFENIKIPLPPLEEQKQIAKILSDFDN”, the “soluble on expression in E. coli” value is given as “not soluble”.

As for “KEYFSVWMEDIIYFENSGRNVKIMTIDGTDLFVGNIKDIAKEVLPYGFIQISQSIIVNYNFVSKYSREEIILINKEKIAIPKNKRNGVKEQFL”, the “soluble on expression in E. coli” value was “not soluble”.

As for “KFGIARSGAMDEDALRMANILLGNKQDEAGIELCLKGGKYEFLDENYFVLSGAEFEAKLDNQKIKTCKVYQANKGDILELDLAKIGFRGYLCVAGGFEVKSFLNSKSSDAKMGAGVFEGRALQKDDILNTHNTFIPFNLEARECENPLFKSPKEPIIRVILGTNEDAFTQKGIETFLNTTYKVGLKSDRMAIYAESSESIEHKNSADIISDPAVFGSIQVPKSGIPIILMAGRQSTGGYTKIATVIENDLSLLAQAKLGSSFKFQSISMQEALELYKQREMK”, the “soluble on expression in E. coli” value was “not soluble”.

Take “KFTLGQFFGAAKIAGKAFMFKADEPEDLIAKIVEMADAARKGGFLALEEMEINNSFMQKGIDLLVDGHDADVVRAALQKDIALTDERHTQGTGVFRAFGD”: the “soluble on expression in E. coli” value was “not soluble”.

Regarding “KGDDNYYIIFTSGTTGQPKGVQISHDNLLSFTNWMIEDAAFDVPKQPQMLAQPPYSFDLSVMYWAPTLALGGTLFALPKELVADFKQLFTTIAQLPVGIWTSTPSFADMAMLSDDFCQAKMPALTHFYFDGEELTVSTARKLFERFPSAKIINAYGPTEATVALSAIEITREMVDNYT”, the “soluble on expression in E. coli” value was “not soluble”.

“KGKLPPVVHGTTPFVGHIIQFGKDPLGFMLKAKKKYGGIFTMNICGNRITVVGDVHQHSKFFTPRNEILSPREVYSFMVPVFGEGVAYAAPYPRMREQLNFLAEELTVAKFQNFAPSIQHEVRKFMKANWNKDEGEINILDDCSAMIINTACQCLFGEDLRKRLDARQFAQLLAKMESCLIPAAVFLPWILKLPLPQSYRCRDARAELQDILSEIIIAREKEEAQKDTNTSDLLAGLLGAVYRDGTRMSQHEVCGMIVAAMFAGQHTSTITTTWSLLHLMDPRNKRHLAKLHQEIDEFPAQLNYDNVMEEMPFAEQCARESIRRDPPLVMLMRKVLKPVQVGKYVVPEGDIIACSPLLSHQDEEAFPNPREWNPERNMKLVDGAFCGFGAGVHKCIGEKFGLLQVKTVLATVLRDYDFELLGPLPEPNYHTMVVGPTASQCRVKYIKKKKAAA”: the “soluble on expression in E. coli” value is reported as “soluble”.

In the case of “KHDGIPAECTTIYNRGEHTSGMYAIRPSNSQVFHVYCDVISGSPWTLIQHRIDGSQNFNETWENYKYGFGRLDGEFWLGLEKIYSIVKQSNYVLRIELEDWKDNKHYIEYSFYLGNHETNYTLHLVAITGNVPNAIPENKDLVFSTWDHKAKGHFNCPEGYSGGWWWHDECGENNLNGKYNKPRAKSKPERRRGLSWKSQNGRLYSIKSTKMLIHPTDSESFE”, the “soluble on expression in E. coli” value is “soluble”.

With “KILSVGSFGCNFVCDFCQNYDISQRKARSTFAPKEELIRIAMTTEDNIGLAFTYNEPSIWYEYMYDCAKLLKETDEKRSVVFVTNGFLSEEPLKKLLPYVDAMNIDLKSFKESYYKSLCGGRLNPVLETIKMAAKVCHVEVTTLLVSGENDNLDEIEEIAKFLASVNSEIPLHLSRYFPRYKLENPPTDVEFMQEAKKTAEKYLKRVMLGNV”, the “soluble on expression in E. coli” value is on record as “not soluble”.

Regarding “KIVAVTACPTGIAHTYMAADALMKAAPKHNVQIKVETQGAMGIENQLTPHDIAQADRVLIVSDIEIEQPGRFEGTRKIQIPIEEVLLNVDKVFL”, the “soluble on expression in E. coli” value was “not soluble”.

Regarding “KKKKKKDPNEPQKPVSAYALFFRDTQAAIKGQNPNATFGEVSKIVASMWDGLGEEQKQVYKKKTEAAKKEYLKQLAAYRASLVSKSYTD”, the “soluble on expression in E. coli” value was “soluble”.

For “KKVIIIINPTSGGEAALDYKESLESKAKEYFDHVETKITQRAKDATHFAQNASEEKYDAVIVFGGDGTVNEVISGISEKNHIPKLGIIPGRTGNLITKLLEIN”, the “soluble on expression in E. coli” value is on record as “not soluble”.

Turning to “KLSSSEKNAILNAVSWYDADAEKVVKGTTKLAGDKLKELLAYLGCKEKELGDYGYFATEKKGEYLEYETESNLRDTENVPLKEAIYTYFLREVKPHVGEAWINLDATKIGYEISFNKYFYKHKPLRSIEDVTADILALEKESDGLIAEILGL”, the “soluble on expression in E. coli” value is listed as “not soluble”.

As to “KNRIGTKALNFTYTLASGAQGSLYQLKAEYLLLFINNPGCQACTETIEGLKNAPIINQLLQEKKLVLLSIYPDEELDEWKKHLSEFPNEWINGYDKKFTIKEEQVYDLKAIPTLYLLDKDKTVLLKDATAPAIEAYLMQHQ”, the “soluble on expression in E. coli” value is “not soluble”.

With “KPNWCPGCGDFSVQAAIQRAAANVGLEPDQLAVISGIGCSGRISGYINAYGFHGVHGRVLPIAQGVKMANRDVTVIASGGDGDGFAIGMGHTVHAIRRNINITYIVMDNQIYGLTKGQTSPRSDVGFKTKSTPSGSVESALNVMEMALTAGATFVAQSFSSDLKELTALIEKGINHNGFSLINVFSPCVTFNKVNTYDWFKENLTKLSDLEGYDPQNRMVAMQTLMEHNGLVTGLIYQNDKQPSYQDLIAGYDEKPLADQDLTIDEGKFKELVGEF”, the “soluble on expression in E. coli” value was “not soluble”.

In the case of “KQGPTSVAYVEVNNNSMLNVGKYTLADGGGNAFDVAVIFAANINYDTGTKTAYLHFNENVQRVLDNAVTQIRPLQQQGIKVLLSVLGNHQGAGFANFPSQQAASAFAKQLSDAVAKYGLDGVDFNDEYAEYGNNGTAQPNDSSFVHLVTALRANMPDKIISLYNIGPAASRLSYGGVDVSDKFDYAWNPYYGTWQVPGIALPKAQLSPAAVEIGRTSRSTVADLARRTVDEGYGVYLTYNLDGGDRTADVSAFTRELYGSEAVRT”, the “soluble on expression in E. coli” value is on record as “soluble”.

With “KQKVINVKEVRLSPTIEEHDFNTKLRNARKFLEKGDKVKATIRFKGRAITHKEIGQRVLDRLSEACADIAVVETAPKMDGRNMFLVLAPKNDNK”, the “soluble on expression in E. coli” value is given as “soluble”.

“KRTWWLWRQTISSSRGNKVVFEVNADSVRYKSGKIDRSLAWSEIDQLEQTDLGFILHLGKQRQYISKSCLNEEVIAFMVEQHAGSKAS”: the “soluble on expression in E. coli” value is recorded as “not soluble”.

Take “KSNYVRVIPNPKVPTDYPAITIEMNDTVSSEQTIEALKSIERVMQEVESQTIADHGQGMIRDVLSYNRSRTEGRVLVPLVDEEIRPFNTFELARRWREAMPVIPGMKSIKIREQSAGGGDRDEFGYLLFGSNINELNQAGRYLIERLQQEEGLFDISSSIDSGSKEVLLSLAPVAYDLGLDLTMIAQQVGGSFYGGEAQRLIRDGEEIKVMVRYPQLTREAFSSLRYAVITTPAGKKVMLGDVVNISEQPGVSTIRREGGYQTVYVYGSIDEELVEPQEIVKIIDDSILPDMKKLHPSVKTELGGDIEEQAAQRNEQ”: the “soluble on expression in E. coli” value is reported as “not soluble”.

For “KTHFVIQLKEDSQLMDEVVVVGFGTQKKINLTGAVTAVNIQETLGDRPITNVTAALQGVVPGLKIEGTTGTPGDNLSYNIRGTTSINGGGPLVLVNNVPMDINMIDPQDIESVSVLKDAASAAIYGARAAFGVILITTKQGKKDM”, the “soluble on expression in E. coli” value is on record as “not soluble”.

“KTTVIPESLKILGWVEFTRLEPWGIKTPARIDTGANTSSMSARDINVFKRNGKTWVRFTFDFKKGTAERSIEIERPLVRMVKIKQHDGPSQERPVISMEICLADEIREAEFDLIDRRALNYPVLLGRKALAGYVVVDPARAYLTKAV”: the “soluble on expression in E. coli” value is on record as “not soluble”.

Regarding “KVGISMFNILQSTQLSSNTFDFWLEAPRIATHAQAGQFVILRIDEKGERIPLTIAETNPQAGSIRIIFQVIGKTTAALSQLKTSDSLLDITGPLGMPTEVKQYGTVMVVGGGVGIAAIYPIIKALKEAGNRVITILGARTAELVLLQEECRRYSDELIITTDDGSLGKKGLVTEAMEEVIARESVACSWAIGPSIMMKFCTLTAEKHQLPIYVSLNPIMIDGTGMCGGCRVTVDGTMKFACVDGPEFKGNEVNWDEFINRMKQYQEEEAVCFTDRLKEQVEKNG”, the “soluble on expression in E. coli” value is given as “not soluble”.

In the case of “KVKSTFNKYSKVSSSKGMTGAMVAEQLLRSQGIYDVSIQRVSGSLTDNYNPRNKTLNLSDSVYNSTSVAAIGVAAHETGHAIQHAYGYGPLSFRTALFP”, the “soluble on expression in E. coli” value is on record as “not soluble”.

As for “KVLKIPREKIIEKGFTDPREYFASIEVDGGRPPKPGEFRDILVETVREVMGVEVVEAGLSKEEKIIWDRYKEMLTSSRFKMRRSTRLFKASMPPGTRYGFAQIKYRKLVQASVAVDSEGIIRAAMITGDFQLIPADADEEIVKAILGFKHSQYGEAADRVRRLVDERGIMIIGASAEEFIKPV”, the “soluble on expression in E. coli” value is reported as “soluble”.
